Data taken from publication PMC4975481.

Molecular target: Ebola virus nucleoprotein, recombinant construct consisting of the C-terminal portion of NP (Ebola virus (EBOV; formerly the Zaire ebolavirus))
Test: SPR; ProteOn XPR36; […] (10 mM acetate pH 5.0); […]; Langmuir model

Sequence of Ebola virus nucleoprotein, recombinant construct consisting of the C-terminal portion of NP (Ebola virus (EBOV; formerly the Zaire ebolavirus)) (P18272 641-739 limits assumed): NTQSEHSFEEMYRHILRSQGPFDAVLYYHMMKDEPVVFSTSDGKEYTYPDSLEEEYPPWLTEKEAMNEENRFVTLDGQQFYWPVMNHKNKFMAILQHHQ

Row | Binder | Kd [nM]
1 | DSTL096 (VHH) VHH: RVDQTPRSVTKETGESLTINCVLRDASYAVGSTCWYRKKSGSTNEESISKGGRYVETVNSGSKSFSLRINDLTVEDGGTYRCGVSTYNWCGVRGLGCVHGACGDGTAVTVN | 0.39
2 | SK to RI (VHH) VHH: TRVDQTPRTATKETGESLTINCVLRDASYAVGSTCWFRKNPGTTDEERISIGGRYVESVNKGAKSFSLRIKDLTVADSATYYCGVSTYNWCGVRGLGCVHGACGDGTALTVK | 22
3 | SP15-096-13 (VHH) VHH: TRVDQTPRTATKETGESLTINCVLRDASYAVGSTCWFRKNPGTTDWERISIGGRYVESVNKGAKSFSLRIKDLTVADSATYYCGVSTYNWCGVRGLGCVHGACGDGTALTVK | 27
4 | EK to WI (VHH) VHH: TRVDQTPRTATKETGESLTINCVLRDASYAVGSTCWFRKNPGTTDWESISIGGRYVESVNKGAKSFSLRIKDLTVADSATYYCGVSTYNWCGVRGLGCVHGACGDGTALTVK | 3.6
5 | ES to WR (VHH) VHH: TRVDQTPRTATKETGESLTINCVLRDASYAVGSTCWFRKNPGTTDWERISKGGRYVESVNKGAKSFSLRIKDLTVADSATYYCGVSTYNWCGVRGLGCVHGACGDGTALTVK | 12
6 | E to W (VHH) VHH: TRVDQTPRTATKETGESLTINCVLRDASYAVGSTCWFRKNPGTTDWESISKGGRYVESVNKGAKSFSLRIKDLTVADSATYYCGVSTYNWCGVRGLGCVHGACGDGTALTVK | 0.34
7 | K to I (VHH) VHH: TRVDQTPRTATKETGESLTINCVLRDASYAVGSTCWFRKNPGTTDEESISIGGRYVESVNKGAKSFSLRIKDLTVADSATYYCGVSTYNWCGVRGLGCVHGACGDGTALTVK | 2.2
8 | S to R (VHH) VHH: TRVDQTPRTATKETGESLTINCVLRDASYAVGSTCWFRKNPGTTDEERISKGGRYVESVNKGAKSFSLRIKDLTVADSATYYCGVSTYNWCGVRGLGCVHGACGDGTALTVK | 2.3
9 | SP15-096-123 (VHH) VHH: TRVDQTPRTATKETGESLTINCVLRDASYAVGSTCWFRKNPGTTDEESISKGGRYVESVNKGAKSFSLRIKDLTVADSATYYCGVSTYNWCGVRGLGCVHGACGDGTALTVK | 0.37
